The experiment deals with AriA (Escherichia coli strain B185). Put plainly: cryo-EM structure.

AriA (natural protein) came in with a stoichiometry N of 6.

Usually stoichiometry N stands for the number of molecules, sites or subunits per partner or assembly.

Source of the values: publication PMC10802454.
